Laboratory results from publication PMC7948970.

Experiments:
Experiment in all cases: SEC; analytical gel filtration on an XBridge BEH SEC 200 Å 3.5 μm column; molecular weight estimated from a standard curve (thyroglobulin, immunoglobin, BSA, myoglobulin)
[1] = molecular target: Staphylococcus aureus oleate hydratase OhyA(Y201F) (Staphylococcus aureus)
[2] = molecular target: Staphylococcus aureus oleate hydratase (OhyA) (Staphylococcus aureus)
[3] = molecular target: Staphylococcus aureus oleate hydratase OhyA(E82A) (Staphylococcus aureus)

Which stoichiometry N [1] does the source give for “Staphylococcus aureus oleate hydratase OhyA(Y201F) (enzyme)” here?
Its stoichiometry N is 2.

With “Staphylococcus aureus oleate hydratase (OhyA) (enzyme)” as the substance, how does the stoichiometry N [2] read?
Its stoichiometry N is 2.

For “Staphylococcus aureus oleate hydratase OhyA(E82A) (enzyme)”, which stoichiometry N [3] is on record?
The stoichiometry N was 2.
